In test [1] the target is T1, hSIRPαV2D1 with histidine tag (human).
T1 construct: analyte of the Biacore experiments; also called first immunoglobulin-like domain of human SIRPα variant V2; not shown: histidine tag
As to the kind of experiment: SPR (Biacore 3000), IgG captured, single analyte concentration 50 nM. The procedure:
(§1) Briefly, biosensor analysis was conducted at 25° C. in an HPS-EP buffer (10 mM HEPES, 150 mM NaCl, 3 mM EDTA, 0.005% polysorbate 20, 0.1% bovine serum albumin, pH 7.4) using a Biacore 3000 optical biosensor equipped with a CM5 sensor chip according to the manufacturer's protocol. The auto sampler was maintained at ambient temperature. Goat anti-human IgG capture antibody (Jackson Laboratories; 109-005-098) was immobilized on the four flow cells in each sensor chip using standard amine coupling chemistry. About 8000 resonance units (RU) of this antibody was immobilized on each flow cell. Flow cells 2, 3, and 4 were used to analyze captured anti-SIRPα antibodies (about 250 to 300 RU were captured on each of flow cells 2, 3, and 4), while flow cell 1 was used as the reference flow cell. The analytes tested were hSIRPαV1D1, hSIRPαV2D1, cynomolgus monkey SIRPαV1D1 (cSIRPαV1D1), cSIRPαV2D1, hSIRPβ1D1, and hSIRPγD1, each of which also included a histidine tag. The sequences of cSIRPαV1D1 and cSIRPαV2D2 are provided in SEQ ID NOs: 143 and 142, respectively. To avoid confusion, the differences between the amino acid sequences of cSIRPαV1D1 and cSIRPαV2D1 are not the same as the differences between the amino acid sequences of hSIRPαV1D1 and hSIRPαV2D1. […]
(§2) In a separate experiment, KDs of additional variants of Ab11_G4 and Ab24_G4 were determined for binding to hSIRPαV1D1 and hSIRPαV2D1. […]
Background: SPR reads the build-up and loss of mass on a sensor chip optically.

Test [2] deals with T2, hSIRPαV1D1 with histidine tag (human, UniProt P78324 31-147).
T2 construct: analyte of the Biacore experiments; also called first immunoglobulin-like domain of human SIRPα variant V1; not shown: histidine tag
The description is as above. Here is the method:
as §1, §2

T2 sequence (P78324 31-147 limits assumed): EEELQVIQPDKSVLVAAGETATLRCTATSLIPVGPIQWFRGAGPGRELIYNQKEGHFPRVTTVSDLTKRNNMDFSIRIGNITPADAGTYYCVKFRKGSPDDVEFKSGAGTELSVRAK
T1 sequence (chain, as listed by the source limits assumed): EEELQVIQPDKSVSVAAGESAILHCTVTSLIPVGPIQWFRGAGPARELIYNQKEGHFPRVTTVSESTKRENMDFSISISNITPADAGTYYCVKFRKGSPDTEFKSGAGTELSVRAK

B1: Ab24_G1AAA (antibody, human IgG1, kappa, L234A L235A)
heavy: EVQLVESGGGLVKPGGSLRLSCAASGFTFSSYVMSWVRQTPGKGLEWVATISSGGTYTYYPDSVKGRFTLSRDNAKNSLYLQMNSLRAEDTAVYYCASQLTGSEFDYWGQGTTVTVSSASTKGPSVFPLAPSSKSTSGGTAALGCLVKDYFPEPVTVSWNSGALTSGVHTFPAVLQSSGLYSLSSVVTVPSSSLGTQTYICNVNHKPSNTKVDKKVEPKSCDKTHTCPPCPAPEAAGGPSVFLFPPKPKDTLMISRTPEVTCVVVDVSHEDPEVKFNWYVDGVEVHNAKTKPREEQYNSTYRVVSVLTVLHQDWLNGKEYKCKVSNKALAAPIEKTISKAKGQPREPQVYTLPPSREEMTKNQVSLTCLVKGFYPSDIAVEWESNGQPENNYKTTPPVLDSDGSFFLYSKLTVDKSRWQQGNVFSCSVMHEALHNHYTQKSLSLSPGK
light: DIVLTQSPASLAVSLGERATISCRASESVDLYGTSFMHWYQQKPGQPPKLLIYRASNLESGVPDRFSGSGSRTDFTLTINPLQAEDVATYYCHQSSDELPWTFGGGTKVEIKRTVAAPSVFIFPPSDEQLKSGTASVVCLLNNFYPREAKVQWKVDNALQSGNSQESVTEQDSKDSTYSLSSTLTLSKADYEKHKVYACEVTHQGLSSPVTKSFNRGEC
notes: also called Ab24_AAA; 24_AAA
In general, Kd refers to the concentration at which binding is half-saturated. A low value points to higher affinity. In the case of B1, the values for the Kd in test [1] and in test [2] were 1.19 nM and 19.4 nM, respectively.

These data come from patent publication US20220235144A1 (QILU PUGET SOUND BIOTHERAPEUTICS, published 2022).
